Measurements from publication PMC6414520, “CryoEM structure of adenovirus type 3 fibre with desmoglein 2 shows an unusual mode of receptor engagement” (Nature Communications, 2019).

B1: human adenovirus type 3 fibre knob (HAd3K), fibre residues 124-319, co-expressed with DSG2 EC2-EC3 (domain or fragment)
chain: NSIALKNNTLWTGPKPEANCIIEYGKQNPDSKLTLILVKNGGIVNGYVTLMGASDYVNTLFKNKNVSINVELYFDATGHILPDSSSLKTDLELKYKQTADFSARGFMPSTTAYPFVLPNAGTHNENYIFGQCYYKASDGALFPLEVTVMLNKRLPDSRTSYVMTFLWSLNAGLAPETTQATLITSPFTFSYIREDD
notes: fibre protein of human adenovirus type 3, knob, fibre residues 124-319; Trimer; also called HAd3 fibre knob; HAdK3; source: E. coli Rosetta(DE3)pLysS, pETDuet, co-expressed with EC2-EC3, complex purified (Ni-NTA, SEC)

Assays:
[1] = molecular target: human adenovirus type 3 fibre knob (HAd3K), fibre residues 124-319, co-expressed with DSG2 EC2-EC3 (human adenovirus type 3) (UniProt P04501); assay: cryo-EM structure; complex co-expressed in E. coli and co-purified (Ni-NTA, SEC); 150 mM NaCl, 3 mM CaCl2, 10 mM Tris-Cl pH 8.0; Volta phase plate; particles with one or two EC2-EC3 modules per knob trimer sorted by classification
[2] = molecular target: the molecule itself; assay: as above

Molecule	stoichiometry N (DSG2 per knob trimer) [1]	stoichiometry N (receptor per knob trimer) [1]	stoichiometry N [2]
human desmoglein 2 EC2-EC3 domains (DSG2 residues 100-337), co-expressed with HAd3K in E. coli (domain or fragment)	2	1	–
B1	–	–	3
